Literature values as cited in article PMC1079850.

Target: Tsr (Escherichia coli) (UniProt P02942)
Experiment: given as Ka

Sequence of Tsr (Escherichia coli) (P02942 whole entry): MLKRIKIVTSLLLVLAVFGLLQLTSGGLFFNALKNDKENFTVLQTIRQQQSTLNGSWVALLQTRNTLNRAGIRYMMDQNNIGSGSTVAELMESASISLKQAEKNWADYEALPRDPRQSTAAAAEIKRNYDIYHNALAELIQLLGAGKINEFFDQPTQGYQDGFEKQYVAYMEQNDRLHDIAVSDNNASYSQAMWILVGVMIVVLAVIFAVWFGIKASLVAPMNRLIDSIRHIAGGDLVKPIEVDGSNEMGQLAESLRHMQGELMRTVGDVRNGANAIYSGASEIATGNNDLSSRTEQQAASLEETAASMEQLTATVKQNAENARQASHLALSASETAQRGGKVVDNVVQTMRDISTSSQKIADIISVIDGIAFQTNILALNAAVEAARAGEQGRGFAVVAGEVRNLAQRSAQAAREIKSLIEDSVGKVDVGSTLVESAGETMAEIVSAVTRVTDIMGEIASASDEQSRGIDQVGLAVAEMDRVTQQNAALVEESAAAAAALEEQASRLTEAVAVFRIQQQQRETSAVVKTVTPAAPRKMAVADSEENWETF
Sequence of CheR (P07364 whole entry): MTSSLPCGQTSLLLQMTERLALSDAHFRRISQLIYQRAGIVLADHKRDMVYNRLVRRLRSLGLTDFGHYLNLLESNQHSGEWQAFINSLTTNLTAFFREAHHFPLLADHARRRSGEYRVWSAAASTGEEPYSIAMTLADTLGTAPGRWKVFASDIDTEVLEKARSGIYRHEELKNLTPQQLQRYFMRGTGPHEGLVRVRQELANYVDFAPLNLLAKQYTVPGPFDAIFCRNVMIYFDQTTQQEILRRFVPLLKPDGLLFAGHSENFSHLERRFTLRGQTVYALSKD

- Kd: 2500 nM
Substance: CheR (from UniProt P07364)
